This note sets out measurements from patent US20050064533.

For data set [1], the target named is recombinant C-terminal 90 amino acids of human HIF-1a, C of the hydroxylation motif changed to alanine, Q16665.
The target in data set [2] is recombinant C-terminal 90 amino acids of human HIF-1a, valine preceding the target asparagine changed to alanine, Q16665.
Data set [3] deals with recombinant C-terminal 90 amino acids of human HIF-1a, D of the hydroxylation motif changed to alanine, Q16665.
Data set [4] addresses recombinant C-terminal 90 amino acids of human HIF-1a, conserved G 5 amino acids C-terminal to the target asparagine changed to alanine, Q16665.
Data set [5] addresses recombinant C-terminal 90 amino acids of human HIF-1a, wild type, Q16665.
In data set [6] the target is recombinant C-terminal 90 amino acids of human HIF-1a, glutamic acid (E) of the hydroxylation motif changed to alanine, Q16665.
Chain of recombinant C-terminal 90 amino acids of human HIF-1a, glutamic acid (E) of the hydroxylation motif changed to alanine, Q16665 (Q16665 other isoform, or with tags, fused parts or gaps): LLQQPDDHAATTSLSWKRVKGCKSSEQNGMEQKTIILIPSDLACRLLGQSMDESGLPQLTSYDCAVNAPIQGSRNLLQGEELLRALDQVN
The target of data set [7] is recombinant C-terminal 90 amino acids of human HIF-1a, tyrosine (Y) of the hydroxylation motif changed to alanine, Q16665.
Chain of recombinant C-terminal 90 amino acids of human HIF-1a, tyrosine (Y) of the hydroxylation motif changed to alanine, Q16665 (Q16665 737-826 Y798A): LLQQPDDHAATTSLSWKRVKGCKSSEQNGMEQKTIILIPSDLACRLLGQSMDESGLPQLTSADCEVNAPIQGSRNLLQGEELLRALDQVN

Chain of recombinant C-terminal 90 amino acids of human HIF-1a, valine preceding the target asparagine changed to alanine, Q16665 (Q16665 other isoform, or with tags, fused parts or gaps): as the sequence (Q16665 737-826 Y798A) above, with A62Y, V66A counted along it
Chain of recombinant C-terminal 90 amino acids of human HIF-1a, wild type, Q16665 (Q16665 737-826): as the sequence (Q16665 737-826 Y798A) above, with A62Y counted along it
Chain of recombinant C-terminal 90 amino acids of human HIF-1a, D of the hydroxylation motif changed to alanine, Q16665 (Q16665 737-826 D799A): as the sequence (Q16665 737-826 Y798A) above, with A62Y, D63A counted along it
Chain of recombinant C-terminal 90 amino acids of human HIF-1a, conserved G 5 amino acids C-terminal to the target asparagine changed to alanine, Q16665 (Q16665 other isoform, or with tags, fused parts or gaps): as the sequence (Q16665 737-826 Y798A) above, with A62Y, G72A counted along it
Chain of recombinant C-terminal 90 amino acids of human HIF-1a, C of the hydroxylation motif changed to alanine, Q16665 (Q16665 737-826 C800A): as the sequence (Q16665 737-826 Y798A) above, with A62Y, C64A counted along it

B1: MBP (maltose binding protein) fused to wild type HIF Asparagine Hydroxylase (HNH) (protein)
chain: MAATAAEAVASGSGEPREEAGALGPAWDESQLRSYSFPTRPIPRLSQSDPRAEELIENEEPVVLTDTNLVYPALKWDLEYLQENIGNGDFSVYSASTHKFLYYDEKKMANFQNFKPRSNREEMKFHEFVEKLQDIQQRGGEERLYLQQTLNDTVGRKIVMDFLGFNWNWINKQQGKRGWGQLTSNLLLIGMEGNVTPAHYDEQQNFFAQIKGYKRCILFPPDQFECLYPYPVHHPCDRQSQVDFDNPDYERFPNFQNVVGYETVVGPGDVLYIPMYWWHHIESLLNGGITITVNFWYKGAPTPKRIEYPLKAHQKVAIMRNIEKMLGEALGNPQEVGPLLNTMIKGRYN
Regarding B1, the “hydroxylation in an in vitro hydroxylation assay” value in data set [1] was “an up to 50% decrease in hydroxylation of the target aspargine”; in data set [2] it was “altering this valine to alanine results in very low levels of hydroxylation”; in data set [3], “an up to 50% decrease in hydroxylation of the target aspargine”; in data set [4], “an approximately 50% decrease in hydroxylation”; in data set [6] it was “The glutamic acid (E) residue is more important or efficient hydroxylation than D or C”; in data set [7], “Substituting alanine in place of tyrosine (Y) has little effect”. The “hydroxylation assessed by counting liberated 14CO2” value in data set [5] was “the degree of hydroxylation for each mutant normalised to the level observed for the wild type HIF-1α CAD sequence”.
